Measurements reported in the supplement of paper PMC9732359.
± gives the uncertainty stated by the source.

Experiment: protein stability index of a GFP-peptide fusion (yeast GPS) (PSI 1-4); higher = more stable; sorted into four equal gates, so the index is relative within each strain
Summary of the method: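 Each library plasmid carries Cherry plus GFP with a tiled 17-residue yeast protein peptide fused downstream, and the pooled library was carried in yeast. Mid-log cultures in leucine-free medium were sorted into four equal gates by GFP/Cherry ratio. Reads from Illumina sequencing of PCR-amplified plasmids from each gate were assigned to strains by barcodes. Per peptide, the protein stability index was computed as the summed products of gate read frequency and gate number.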

Row | Sequence | protein stability index (doa10∆) | protein stability index (san1∆) | protein stability index (pdr5∆) | protein stability index (ubr1∆)
1 | MITKRILEVGALASIQT [RPN12] | 1.63 ± 0.083 | 2.14 ± 0.22 | – | –
2 | ELLKLLNDEYNYPQLTE [YCS4] | 3.09 ± 0.096 | 3.03 ± 0.059 | 3.11 ± 0.098 | 3.25 ± 0.06
3 | NNTNNANSSITPAFGSN [YJL041W/NSP1] | 3.06 ± 0.11 | 2.86 ± 0.11 | 3.06 ± 0.11 | 3.06 ± 0.12
4 | GDAAPAEEAAAEEEEES [RPP0] | – | 3.29 ± 0.13 | 3.67 ± 0.16 | 3.44 ± 0.12
5 | QYATVSKTHKTVSRAYG [RPL34A] | 2.05 ± 0.069 | 2.41 ± 0.065 | 2.31 ± 0.055 | 2.34 ± 0.06
6 | DKLLDPTTVSYIFCISR [SCL1] | 2.97 ± 0.045 | 3.181 ± 0.029 | 3.1 ± 0.06 | 3.22 ± 0.051
7 | RLKYALNGREVKAILMQ [RPS4A] | 1.74 ± 0.073 | 1.62 ± 0.18 | 1.39 ± 0.062 | 1.24 ± 0.05
8 | SPTENGVFDPASYSKYL [RPL22B] | 3.18 ± 0.074 | 3.05 ± 0.066 | 3.25 ± 0.083 | 2.87 ± 0.06
9 | SKLEGTINKAVQVKVLG [ESC2] | 1.57 ± 0.11 | 1.66 ± 0.21 | 1.93 ± 0.12 | 1.75 ± 0.086
10 | NSGIIPGNRNADNVDKI [FAS2] | 2.52 ± 0.083 | 3.03 ± 0.091 | 2.52 ± 0.1 | 3.04 ± 0.05
11 | QGPVKNTQLHGPSATDP [RGR1] | 2.93 ± 0.062 | 2.97 ± 0.053 | 3.06 ± 0.047 | 3.02 ± 0.035
12 | LVNRKPIPFEFQAVIQK [SNF2] | 2.65 ± 0.079 | 2.71 ± 0.048 | 2.73 ± 0.057 | 2.83 ± 0.038
13 | VLAAQSIGEPATQMTLN [RPO21] | 2.69 ± 0.055 | 2.87 ± 0.042 | 3 ± 0.051 | 2.91 ± 0.048
14 | NLLKFITSNHKSSVPGS [RPN3] | 2.55 ± 0.11 | 2.07 ± 0.067 | 2.77 ± 0.1 | 2.41 ± 0.087
15 | VNDVELAFKKNEMLLKR [MTW1] | 3.24 ± 0.19 | 3.4 ± 0.14 | 3.46 ± 0.14 | 3.11 ± 0.066
16 | GEANKHHWEDLQKRVIE [RPN5] | 2.98 ± 0.26 | 2.93 ± 0.18 | 3.4 ± 0.26 | 3.81 ± 0.27
17 | DPGRYNKVCRIEAASTT [RPB8] | 2.41 ± 0.093 | 2.48 ± 0.1 | 2.53 ± 0.099 | 2.73 ± 0.082
18 | WQELARSTDEFNGAQLK [RPT5] | 2.52 ± 0.16 | 2.65 ± 0.24 | 2.73 ± 0.2 | 2.29 ± 0.17
19 | LNVKCTRNPDAPKGSTD [RPC40] | 3.19 ± 0.095 | 3.04 ± 0.064 | 3.1 ± 0.11 | 3.06 ± 0.12
20 | LRLVDDDENNPSHYPHP [RRP6] | 3.11 ± 0.09 | 2.77 ± 0.069 | 2.92 ± 0.093 | 2.89 ± 0.038
21 | KIVFILDSDSENDLSFA [RRI2] | 2.52 ± 0.059 | 2.09 ± 0.12 | 2.61 ± 0.059 | 2.59 ± 0.047
22 | KILMYQYNIPPEREVLV [RRP6] | 1.78 ± 0.075 | 1.77 ± 0.2 | 2.04 ± 0.077 | 1.72 ± 0.087
23 | VDVKPKSPKERELEERA [RPC25] | – | – | 3.07 ± 0.17 | 3.31 ± 0.13
24 | VLAQYHEAKERIRQKEV [SNF6] | – | – | – | 3.4 ± 0.18
25 | REKALNEEAEARRLKNR [RPL19A] | 3.21 ± 0.075 | 3.09 ± 0.095 | 3.15 ± 0.11 | 3.24 ± 0.066
26 | VDSNLPDDEKFTDENTI [RPC40] | 2.35 ± 0.15 | 2.02 ± 0.19 | 3.46 ± 0.21 | –
27 | VNGLLQVLMDINTLNGG [GAL11] | 2.98 ± 0.079 | 3 ± 0.075 | 3.03 ± 0.077 | 2.91 ± 0.036
28 | LGICTHLGCVPIGEAGD [RIP1] | 2.21 ± 0.08 | 1.79 ± 0.1 | 2.33 ± 0.076 | 1.9 ± 0.083

Row | Sequence | protein stability index (doa10∆) | protein stability index (san1∆) | protein stability index (pdr5∆) | protein stability index (ubr1∆)
29 | LTNEDPPGLMYLKAFDK [SSN2] | – | – | 2.61 ± 0.26 | 3.22 ± 0.13
30 | PKFAIQDNHHITKVTEN [YMR129W/POM152] | 2.83 ± 0.052 | 2.75 ± 0.04 | 2.88 ± 0.058 | 3.09 ± 0.041
31 | GELRSYLKGATGHSQGL [FAS1] | – | – | – | 3.87 ± 0.22
32 | GQNLKDLLVNFSAGAAA [RPP1A] | 2.27 ± 0.13 | 2.02 ± 0.21 | 2.18 ± 0.2 | 2.13 ± 0.15
33 | FNRLKKQAHEKLDASKK [YIL149C/MLP2] | 2.95 ± 0.086 | 3.41 ± 0.069 | 3.08 ± 0.099 | 3.14 ± 0.082
34 | ESMLHLSIWIKNYPEYF [IRR1] | 2.17 ± 0.046 | 2.25 ± 0.061 | 2.06 ± 0.038 | 2.2 ± 0.043
35 | GMVSHKTARGKAALERL [RPL16A] | – | 3.17 ± 0.13 | – | –
36 | DIDGIMDNPRKLSKILR [SNU114] | 3.01 ± 0.074 | 2.94 ± 0.058 | 2.96 ± 0.084 | 2.96 ± 0.067
37 | NLTRGINLRKVAEKMNG [RPT6] | 1.63 ± 0.069 | 2.31 ± 0.052 | 1.47 ± 0.05 | 1.28 ± 0.044
38 | EWHSSLTLKEAELLVLK [PUP2] | – | – | 2.47 ± 0.27 | 1.63 ± 0.25
39 | QGGNNELGTAVGKLFRV [RPL30] | 2.5 ± 0.12 | 2.45 ± 0.06 | 2.83 ± 0.093 | 2.84 ± 0.076
40 | DAKSTPLRLRLYDNFVS [RPN9] | 3.3 ± 0.083 | 3.21 ± 0.063 | 3.22 ± 0.088 | 2.87 ± 0.082
41 | GMLAMASLHSKELTRIP [MED4] | 2.18 ± 0.14 | 2.27 ± 0.2 | 2.37 ± 0.12 | 1.88 ± 0.19
42 | ELAESTTTKIIDSTDHI [LRP1] | 2.95 ± 0.1 | 2.86 ± 0.24 | 3.11 ± 0.1 | 2.63 ± 0.12
43 | LSKIKFPESIWKDFTVE [YCG1] | 2.59 ± 0.049 | 1.87 ± 0.06 | 1.89 ± 0.04 | 2 ± 0.03
44 | KEYISRLWHTLKYYQDL [SNF5] | 1.47 ± 0.068 | 1.42 ± 0.1 | 1.55 ± 0.06 | 1.58 ± 0.054
45 | QMSDKHATVVPPEEFSN [SRB7] | 2.98 ± 0.05 | 2.71 ± 0.059 | 2.88 ± 0.056 | 2.86 ± 0.047
46 | NNNNSTRPQMPSRTRET [GRR1] | 2.937 ± 0.027 | 2.949 ± 0.024 | 3.108 ± 0.027 | 3.033 ± 0.021
47 | ELAAKEEPAKEEAPAPT [FAS2] | 3.08 ± 0.2 | – | 3.24 ± 0.14 | –
48 | SNMLGSNEDVMMTGAEQ [RPB3] | 3.47 ± 0.22 | 3.26 ± 0.1 | 3.35 ± 0.12 | 3.08 ± 0.089
49 | ATVPSGRPETYIWRYLP [RPO31] | 2.27 ± 0.12 | 1.16 ± 0.16 | 1.81 ± 0.092 | 1.49 ± 0.11
50 | LQKRVIEHNLRVISEYY [RPN5] | 2.02 ± 0.12 | 2.77 ± 0.069 | 2.27 ± 0.11 | 1.37 ± 0.095
51 | QLSQDEHSQVEQTCVKL [SRP72] | 3.17 ± 0.16 | 3.1 ± 0.094 | 3.24 ± 0.064 | 3.25 ± 0.084
52 | NNANVLGGEINDNEDDD [BRR2] | 3.3 ± 0.095 | 3.3 ± 0.072 | 3.2 ± 0.082 | 2.98 ± 0.061
53 | ASVVPSASSLVITALKE [RPL12A] | 2.09 ± 0.044 | 2.12 ± 0.071 | 2.3 ± 0.051 | 1.96 ± 0.045
54 | SSTGNANTSNNLFGATA [YJL041W/NSP1] | 3.44 ± 0.084 | 3.3 ± 0.051 | 3.31 ± 0.049 | 3.29 ± 0.056
55 | LGVKNLGLCCLLDVKLA [YCG1] | 1.54 ± 0.05 | 1.82 ± 0.063 | 1.58 ± 0.045 | 1.81 ± 0.038
